For orientation: Kd means the free concentration of one partner at which half of the binding sites on the other are occupied at equilibrium, for simple one-to-one binding. As usually defined, the koff is the first-order rate constant of dissociation. High values mean a short-lived complex, low ones a long-lived complex. By kon is commonly meant the rate constant with which the complex forms. Read a high kon as fast association.

Results on 18 molecules are retold here after patent publication US20100261620A1 (published 2010).

This test addresses IL-13 (Homo sapiens (Human), UniProt P35225 35-146, limits assumed). Nature of the test: Biacore. (In general: Surface plasmon resonance follows binding to a sensor surface in real time, without labels.)

IL-13, sequence (P35225 35-146 limits assumed): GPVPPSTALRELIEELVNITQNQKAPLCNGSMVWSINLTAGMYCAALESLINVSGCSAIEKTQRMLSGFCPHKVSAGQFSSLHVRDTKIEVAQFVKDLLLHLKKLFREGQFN

B1: M462 (antibody, V domains shown)
VH: QVTLKESGPVLVKPTETLTLTCTVSGFSLSTYGMGVGWIRQPPGKALEWLAHIWWDDVKRYNPALKSRLTISKDTSKSQVVLTMTNMDPVDTATYYCARMGSDYDVWFDYWGQGTLVTVSS
VL: EIVLTQSPATLSLSPGERATLSCRASKSISKYLAWYQQKPGQAPRLLIYSGSTLQSGIPARFSGSGSGTDFTLTISSLEPEDFAVYYCQQHNFGPYTFGQGTKLEIK
notes: anti-IL-13, human IgG1
Consider B1, for which the affinity, expressed as Kd, was 0.366 nM; the koff amounted to 0.000417 s⁻¹; the kon is 1.14e+06 M⁻¹ s⁻¹.

B2: M465 (antibody, V domains shown)
VH: QVTLKESGPVLVKPTETLTLTCTVSGFSLSTYGMGVGWIRQPPGKALEWLAHIWWDDVKRYNPALKSRLTISKDTSKSQVVLTMTNMDPVDTATYYCARMGSDYDVWFDYWGQGTLVTVSS
VL: EIVLTQSPATLSLSPGERATLSCRASKSISKYLAWYQQKPGQAPRLLIYSGSTLQSGIPARFSGSGSGTDFTLTISSLEPEDFAVYYCQQHDNSPYTFGQGTKLEIK
notes: anti-IL-13, human IgG1
B2 yielded a Kd of 0.306 nM, a koff of 0.000336 s⁻¹ and a kon of 1.1e+06 M⁻¹ s⁻¹.

B3: M472 (antibody, V domains shown)
VH: QVTLKESGPVLVKPTETLTLTCTVSGFSLSTYGMGVGWIRQPPGKALEWLAHIWWDDVKRYNPALKSRLTISKDTSKSQVVLTMTNMDPVDTATYYCARMGSDYDVWFDYWGQGTLVTVSS
VL: EIVLTQSPATLSLSPGERATLSCRASKSISKYLAWYQQKPGQAPRLLIYSGSTLQSGIPARFSGSGSGTDFTLTISSLEPEDFAVYYCQQPLDSPYTFGQGTKLEIK
notes: anti-IL-13, human IgG1
In turn, B3 yielded a dissociation constant Kd of 0.259 nM, a koff of 0.000375 s⁻¹ and an on-rate (kon) of 1.44e+06 M⁻¹ s⁻¹.

B4: M478 (antibody, V domains shown)
VH: QVTLKESGPVLVKPTETLTLTCTVSGFSLSTYGMGVGWIRQPPGKALEWLAHIWWDDVKRYNPALKSRLTISKDTSKSQVVLTMTNMDPVDTATYYCARMGSDYDVWFDYWGQGTLVTVSS
VL: EIVLTQSPATLSLSPGERATLSCRASKSISKYLAWYQQKPGQAPRLLIYSGSTLQSGIPARFSGSGSGTDFTLTISSLEPEDFAVYYCQQHNHGPYTFGQGTKLEIK
notes: anti-IL-13, human IgG1
For the molecule B4, the Kd worked out at 0.208 nM, the koff stood at 0.000247 s⁻¹ and the kon came to 1.19e+06 M⁻¹ s⁻¹.

B5: M463 (antibody, V domains shown)
VH: QVTLKESGPVLVKPTETLTLTCTVSGFSLSTYGMGVGWIRQPPGKALEWLAHIWWDDVKRYNPALKSRLTISKDTSKSQVVLTMTNMDPVDTATYYCARMGSDYDVWFDYWGQGTLVTVSS
VL: EIVLTQSPATLSLSPGERATLSCRASKSISKYLAWYQQKPGQAPRLLIYSGSTLQSGIPARFSGSGSGTDFTLTISSLEPEDFAVYYCQQQDLGPYTFGQGTKLEIK
notes: anti-IL-13, human IgG1
Take B5: the dissociation constant Kd amounted to 0.037 nM, the koff is 6.3e-05 s⁻¹ and the kon came out at 1.7e+06 M⁻¹ s⁻¹.

B6: M469 (antibody, V domains shown)
VH: QVTLKESGPVLVKPTETLTLTCTVSGFSLSTYGMGVGWIRQPPGKALEWLAHIWWDDVKRYNPALKSRLTISKDTSKSQVVLTMTNMDPVDTATYYCARMGSDYDVWFDYWGQGTLVTVSS
VL: EIVLTQSPATLSLSPGERATLSCRASKSISKYLAWYQQKPGQAPRLLIYSGSTLQSGIPARFSGSGSGTDFTLTISSLEPEDFAVYYCQQHDWEPYTFGQGTKLEIK
notes: anti-IL-13, human IgG1
Regarding B6, the Kd amounted to 0.1 nM, the koff was found to be 0.000143 s⁻¹ and the kon was determined as 1.43e+06 M⁻¹ s⁻¹.

B7: M471 (antibody, V domains shown)
VH: QVTLKESGPVLVKPTETLTLTCTVSGFSLSTYGMGVGWIRQPPGKALEWLAHIWWDDVKRYNPALKSRLTISKDTSKSQVVLTMTNMDPVDTATYYCARMGSDYDVWFDYWGQGTLVTVSS
VL: EIVLTQSPATLSLSPGERATLSCRASKSISKYLAWYQQKPGQAPRLLIYSGSTLQSGIPARFSGSGSGTDFTLTISSLEPEDFAVYYCQQPIDAPYTFGQGTKLEIK
notes: anti-IL-13, human IgG1
Turning to B7, the Kd was 0.253 nM, the koff was 0.000364 s⁻¹ and the kon turned out to be 1.44e+06 M⁻¹ s⁻¹.

B8: M475 (antibody, V domains shown)
VH: QVTLKESGPVLVKPTETLTLTCTVSGFSLSTYGMGVGWIRQPPGKALEWLAHIWWDDVKRYNPALKSRLTISKDTSKSQVVLTMTNMDPVDTATYYCARMGSDYDVWFDYWGQGTLVTVSS
VL: EIVLTQSPATLSLSPGERATLSCRASKSISKYLAWYQQKPGQAPRLLIYSGSTLQSGIPARFSGSGSGTDFTLTISSLEPEDFAVYYCQQHLMGPYTFGQGTKLEIK
notes: anti-IL-13, human IgG1
For B8, the Kd is 0.187 nM, the koff was found to be 0.000213 s⁻¹ and the kon amounted to 1.14e+06 M⁻¹ s⁻¹.

B9: M477 (antibody, V domains shown)
VH: QVTLKESGPVLVKPTETLTLTCTVSGFSLSTYGMGVGWIRQPPGKALEWLAHIWWDDVKRYNPALKSRLTISKDTSKSQVVLTMTNMDPVDTATYYCARMGSDYDVWFDYWGQGTLVTVSS
VL: EIVLTQSPATLSLSPGERATLSCRASKSISKYLAWYQQKPGQAPRLLIYSGSTLQSGIPARFSGSGSGTDFTLTISSLEPEDFAVYYCQQHSSGPYTFGQGTKLEIK
notes: anti-IL-13, human IgG1
B9 yielded a Kd of 0.495 nM, a koff of 0.00048 s⁻¹ and a kon of 970000 M⁻¹ s⁻¹.

B10: M473 (antibody, V domains shown)
VH: QVTLKESGPVLVKPTETLTLTCTVSGFSLSTYGMGVGWIRQPPGKALEWLAHIWWDDVKRYNPALKSRLTISKDTSKSQVVLTMTNMDPVDTATYYCARMGSDYDVWFDYWGQGTLVTVSS
VL: EIVLTQSPATLSLSPGERATLSCRASKSISKYLAWYQQKPGQAPRLLIYSGSTLQSGIPARFSGSGSGTDFTLTISSLEPEDFAVYYCQQHDRDPYTFGQGTKLEIK
notes: anti-IL-13, human IgG1
In the case of B10, the Kd was found to be 0.312 nM, the koff came to 0.000403 s⁻¹ and the association rate constant (kon) turned out to be 1.29e+06 M⁻¹ s⁻¹.

B11: M468 (antibody, V domains shown)
VH: QVTLKESGPVLVKPTETLTLTCTVSGFSLSTYGMGVGWIRQPPGKALEWLAHIWWDDVKRYNPALKSRLTISKDTSKSQVVLTMTNMDPVDTATYYCARMGSDYDVWFDYWGQGTLVTVSS
VL: EIVLTQSPATLSLSPGERATLSCRASKSISKYLAWYQQKPGQAPRLLIYSGSTLQSGIPARFSGSGSGTDFTLTISSLEPEDFAVYYCQQHFWGPYTFGQGTKLEIK
notes: anti-IL-13, human IgG1
For the molecule B11, the Kd was determined as 0.094 nM, the koff amounted to 0.0001 s⁻¹ and the kon was 1.06e+06 M⁻¹ s⁻¹.

B12: M474 (antibody, V domains shown)
VH: QVTLKESGPVLVKPTETLTLTCTVSGFSLSTYGMGVGWIRQPPGKALEWLAHIWWDDVKRYNPALKSRLTISKDTSKSQVVLTMTNMDPVDTATYYCARMGSDYDVWFDYWGQGTLVTVSS
VL: EIVLTQSPATLSLSPGERATLSCRASKSISKYLAWYQQKPGQAPRLLIYSGSTLQSGIPARFSGSGSGTDFTLTISSLEPEDFAVYYCQQHDLGPYTFGQGTKLEIK
notes: anti-IL-13, human IgG1
For B12, the affinity, expressed as Kd, was 0.365 nM; the koff was 0.000348 s⁻¹; the kon was 950000 M⁻¹ s⁻¹.

B13: M479 (antibody, V domains shown)
VH: QVTLKESGPVLVKPTETLTLTCTVSGFSLSTYGMGVGWIRQPPGKALEWLAHIWWDDVKRYNPALKSRLTISKDTSKSQVVLTMTNMDPVDTATYYCARMGSDYDVWFDYWGQGTLVTVSS
VL: EIVLTQSPATLSLSPGERATLSCRASKSISKYLAWYQQKPGQAPRLLIYSGSTLQSGIPARFSGSGSGTDFTLTISSLEPEDFAVYYCQQPLDTPYTFGQGTKLEIK
notes: anti-IL-13, human IgG1
In turn, B13 gave a Kd of 0.192 nM, a koff of 0.00024 s⁻¹ and a kon of 1.25e+06 M⁻¹ s⁻¹.

B14: M467 (antibody, V domains shown)
VH: QVTLKESGPVLVKPTETLTLTCTVSGFSLSTYGMGVGWIRQPPGKALEWLAHIWWDDVKRYNPALKSRLTISKDTSKSQVVLTMTNMDPVDTATYYCARMGSDYDVWFDYWGQGTLVTVSS
VL: EIVLTQSPATLSLSPGERATLSCRASKSISKYLAWYQQKPGQAPRLLIYSGSTLQSGIPARFSGSGSGTDFTLTISSLEPEDFAVYYCQQHSWAPYTFGQGTKLEIK
notes: anti-IL-13, human IgG1
Regarding B14, the Kd amounted to 0.452 nM, the koff was determined as 0.000455 s⁻¹ and the kon worked out at 1e+06 M⁻¹ s⁻¹.

B15: M476 (antibody, V domains shown)
VH: QVTLKESGPVLVKPTETLTLTCTVSGFSLSTYGMGVGWIRQPPGKALEWLAHIWWDDVKRYNPALKSRLTISKDTSKSQVVLTMTNMDPVDTATYYCARMGSDYDVWFDYWGQGTLVTVSS
VL: EIVLTQSPATLSLSPGERATLSCRASKSISKYLAWYQQKPGQAPRLLIYSGSTLQSGIPARFSGSGSGTDFTLTISSLEPEDFAVYYCQQHSVGPYTFGQGTKLEIK
notes: anti-IL-13, human IgG1
Molecule B15 returned a Kd of 0.315 nM, a koff of 0.000321 s⁻¹ and an association rate constant (kon) of 1.02e+06 M⁻¹ s⁻¹.

B16: M466 (antibody, V domains shown)
VH: QVTLKESGPVLVKPTETLTLTCTVSGFSLSTYGMGVGWIRQPPGKALEWLAHIWWDDVKRYNPALKSRLTISKDTSKSQVVLTMTNMDPVDTATYYCARMGSDYDVWFDYWGQGTLVTVSS
VL: EIVLTQSPATLSLSPGERATLSCRASKSISKYLAWYQQKPGQAPRLLIYSGSTLQSGIPARFSGSGSGTDFTLTISSLEPEDFAVYYCQQHDWSPYTFGQGTKLEIK
notes: anti-IL-13, human IgG1
B16 had a Kd of 0.225 nM, a koff of 0.000219 s⁻¹ and a kon of 970000 M⁻¹ s⁻¹.

B17: M470 (antibody, V domains shown)
VH: QVTLKESGPVLVKPTETLTLTCTVSGFSLSTYGMGVGWIRQPPGKALEWLAHIWWDDVKRYNPALKSRLTISKDTSKSQVVLTMTNMDPVDTATYYCARMGSDYDVWFDYWGQGTLVTVSS
VL: EIVLTQSPATLSLSPGERATLSCRASKSISKYLAWYQQKPGQAPRLLIYSGSTLQSGIPARFSGSGSGTDFTLTISSLEPEDFAVYYCQQHLDSPYTFGQGTKLEIK
notes: anti-IL-13, human IgG1
B17 registered a Kd of 0.239 nM, a koff of 0.000311 s⁻¹ and a kon of 1.3e+06 M⁻¹ s⁻¹.

B18: M464 (antibody, V domains shown)
VH: QVTLKESGPVLVKPTETLTLTCTVSGFSLSTYGMGVGWIRQPPGKALEWLAHIWWDDVKRYNPALKSRLTISKDTSKSQVVLTMTNMDPVDTATYYCARMGSDYDVWFDYWGQGTLVTVSS
VL: EIVLTQSPATLSLSPGERATLSCRASKSISKYLAWYQQKPGQAPRLLIYSGSTLQSGIPARFSGSGSGTDFTLTISSLEPEDFAVYYCQQHEWGPYTFGQGTKLEIK
notes: anti-IL-13, human IgG1
B18 gave a Kd of 0.055 nM, an off-rate constant (koff) of 7.1e-05 s⁻¹ and a kon of 1.29e+06 M⁻¹ s⁻¹.
